{"source": "the supplement of paper PMC9112550", "about": "“Optimization of the antimicrobial peptide Bac7 by deep mutational scanning” (BMC Biology, 2022);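 further: peptides expressed intracellularly from a pBAD plasmid library in pooled LB shake-flask culture, induced with 0.3% L-arabinose, DNA abundance read by NGS, three biological replicates, DESeq2 with apeglm shrinkage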"}
{"tested_on": "Escherichia coli TOP10", "assay": "shrunken log2 fold change of peptide-encoding DNA abundance (4.5 h post-induction vs induction); higher = less antimicrobial activity (less host growth inhibition)", "conditions": "time post-induction: 4.5 h; library: site-saturation at positions 5, 18, 19, 20"}
{"sequence": "RRIRWRPPRLPRPRPRPLHKPRP", "shrunken log2 fold change": 0.0164}
{"sequence": "RRIRDRPPRLPRPRPRPKGWPRP", "shrunken log2 fold change": 0.589}
{"sequence": "RRIRERPPRLPRPRPRPKSMPRP", "shrunken log2 fold change": -0.307}
{"sequence": "RRIRERPPRLPRPRPRPHKFPRP", "shrunken log2 fold change": -0.984}
{"sequence": "RRIRPRPPRLPRPRPRPFDWPRP", "shrunken log2 fold change": 0.171}
{"sequence": "RRIRNRPPRLPRPRPRPKFTPRP", "shrunken log2 fold change": -0.0624}
{"sequence": "RRIRQRPPRLPRPRPRPPKQPRP", "shrunken log2 fold change": -0.0279}
{"sequence": "RRIRYRPPRLPRPRPRPKERPRP", "shrunken log2 fold change": -0.002}
{"sequence": "RRIRRRPPRLPRPRPRPACFPRP", "shrunken log2 fold change": 0.456}
{"sequence": "RRIRFRPPRLPRPRPRPESTPRP", "shrunken log2 fold change": -0.00608}
{"sequence": "RRIRMRPPRLPRPRPRPIYVPRP", "shrunken log2 fold change": -0.165}
{"sequence": "RRIRWRPPRLPRPRPRPVRGPRP", "shrunken log2 fold change": 0.538}
{"sequence": "RRIRTRPPRLPRPRPRPIHCPRP", "shrunken log2 fold change": -0.172}
{"sequence": "RRIRGRPPRLPRPRPRPGCKPRP", "shrunken log2 fold change": 0.441}
{"sequence": "RRIRARPPRLPRPRPRPEHNPRP", "shrunken log2 fold change": -0.0925}
{"sequence": "RRIRARPPRLPRPRPRPMMFPRP", "shrunken log2 fold change": 0.166}
{"sequence": "RRIRERPPRLPRPRPRPASRPRP", "shrunken log2 fold change": 0.0348}
{"sequence": "RRIRSRPPRLPRPRPRPTTGPRP", "shrunken log2 fold change": 0.0655}
{"sequence": "RRIRMRPPRLPRPRPRPYEEPRP", "shrunken log2 fold change": -0.228}
{"sequence": "RRIRQRPPRLPRPRPRPLRCPRP", "shrunken log2 fold change": 0.244}
{"sequence": "RRIRCRPPRLPRPRPRPWRWPRP", "shrunken log2 fold change": 0.568}
{"sequence": "RRIRCRPPRLPRPRPRPIQTPRP", "shrunken log2 fold change": 0.299}
{"sequence": "RRIRYRPPRLPRPRPRPTFNPRP", "shrunken log2 fold change": -0.73}
{"sequence": "RRIRLRPPRLPRPRPRPHDGPRP", "shrunken log2 fold change": 0.0171}
{"sequence": "RRIRIRPPRLPRPRPRPKTCPRP", "shrunken log2 fold change": 0.179}
{"sequence": "RRIRDRPPRLPRPRPRPGTCPRP", "shrunken log2 fold change": -0.0724}
{"sequence": "RRIRDRPPRLPRPRPRPHMRPRP", "shrunken log2 fold change": 0.00207}
{"sequence": "RRIRPRPPRLPRPRPRPYCHPRP", "shrunken log2 fold change": -0.241}
{"sequence": "RRIRVRPPRLPRPRPRPYCIPRP", "shrunken log2 fold change": -0.27}
{"sequence": "RRIRRRPPRLPRPRPRPQKAPRP", "shrunken log2 fold change": 0.0122}
{"sequence": "RRIRMRPPRLPRPRPRPWRMPRP", "shrunken log2 fold change": 0.0682}
{"sequence": "RRIRLRPPRLPRPRPRPGNNPRP", "shrunken log2 fold change": -0.58}
{"sequence": "RRIRPRPPRLPRPRPRPMCYPRP", "shrunken log2 fold change": -0.221}
{"sequence": "RRIRVRPPRLPRPRPRPSCMPRP", "shrunken log2 fold change": -0.136}
{"sequence": "RRIRDRPPRLPRPRPRPCHWPRP", "shrunken log2 fold change": -0.00151}
{"sequence": "RRIRMRPPRLPRPRPRPLYLPRP", "shrunken log2 fold change": -0.327}
{"sequence": "RRIRFRPPRLPRPRPRPYMEPRP", "shrunken log2 fold change": -0.0116}
{"sequence": "RRIRRRPPRLPRPRPRPGYKPRP", "shrunken log2 fold change": -0.0679}
{"sequence": "RRIRARPPRLPRPRPRPNQLPRP", "shrunken log2 fold change": -0.0527}
{"sequence": "RRIRNRPPRLPRPRPRPACLPRP", "shrunken log2 fold change": 0.146}
{"sequence": "RRIRKRPPRLPRPRPRPSKDPRP", "shrunken log2 fold change": 0.395}
{"sequence": "RRIRFRPPRLPRPRPRPSFYPRP", "shrunken log2 fold change": -0.514}
{"sequence": "RRIRNRPPRLPRPRPRPFHAPRP", "shrunken log2 fold change": -0.0245}
{"sequence": "RRIRRRPPRLPRPRPRPWHAPRP", "shrunken log2 fold change": 0.279}
{"sequence": "RRIRKRPPRLPRPRPRPVGSPRP", "shrunken log2 fold change": 0.178}
{"sequence": "RRIRVRPPRLPRPRPRPDIKPRP", "shrunken log2 fold change": -0.912}
{"sequence": "RRIRDRPPRLPRPRPRPHMPPRP", "shrunken log2 fold change": 0.0902}
{"sequence": "RRIRVRPPRLPRPRPRPIHEPRP", "shrunken log2 fold change": 0.0255}
{"sequence": "RRIRARPPRLPRPRPRPTIMPRP", "shrunken log2 fold change": 0.15}
{"sequence": "RRIRTRPPRLPRPRPRPWPGPRP", "shrunken log2 fold change": 0.0416}
{"sequence": "RRIRYRPPRLPRPRPRPRGKPRP", "shrunken log2 fold change": 0.158}
{"sequence": "RRIRQRPPRLPRPRPRPWGKPRP", "shrunken log2 fold change": -0.103}
{"sequence": "RRIRLRPPRLPRPRPRPAHAPRP", "shrunken log2 fold change": 0.195}
{"sequence": "RRIRERPPRLPRPRPRPPNYPRP", "shrunken log2 fold change": -0.201}
{"sequence": "RRIRHRPPRLPRPRPRPSEQPRP", "shrunken log2 fold change": -0.178}
{"sequence": "RRIRWRPPRLPRPRPRPTQNPRP", "shrunken log2 fold change": 0.637}
{"sequence": "RRIRHRPPRLPRPRPRPPFYPRP", "shrunken log2 fold change": -0.288}
{"sequence": "RRIRIRPPRLPRPRPRPKAMPRP", "shrunken log2 fold change": -0.161}
{"sequence": "RRIRFRPPRLPRPRPRPKNDPRP", "shrunken log2 fold change": -0.407}
{"sequence": "RRIRKRPPRLPRPRPRPGTPPRP", "shrunken log2 fold change": 0.824}
{"sequence": "RRIRSRPPRLPRPRPRPSGCPRP", "shrunken log2 fold change": 0.208}
{"sequence": "RRIRPRPPRLPRPRPRPFHNPRP", "shrunken log2 fold change": -0.541}
{"sequence": "RRIRCRPPRLPRPRPRPPWTPRP", "shrunken log2 fold change": 0.224}
{"sequence": "RRIRLRPPRLPRPRPRPKPGPRP", "shrunken log2 fold change": 0.396}
{"sequence": "RRIRRRPPRLPRPRPRPCSLPRP", "shrunken log2 fold change": 0.00239}
{"sequence": "RRIRPRPPRLPRPRPRPFPHPRP", "shrunken log2 fold change": -0.129}
{"sequence": "RRIRMRPPRLPRPRPRPLRPPRP", "shrunken log2 fold change": 1.76}
{"sequence": "RRIRWRPPRLPRPRPRPSAPPRP", "shrunken log2 fold change": 0.499}
{"sequence": "RRIRRRPPRLPRPRPRPFTHPRP", "shrunken log2 fold change": -0.174}
{"sequence": "RRIRIRPPRLPRPRPRPRAFPRP", "shrunken log2 fold change": -0.0671}
{"sequence": "RRIRWRPPRLPRPRPRPHTWPRP", "shrunken log2 fold change": -0.134}
{"sequence": "RRIRRRPPRLPRPRPRPLTGPRP", "shrunken log2 fold change": 0.0456}
{"sequence": "RRIRYRPPRLPRPRPRPHGRPRP", "shrunken log2 fold change": -0.00992}
{"sequence": "RRIRARPPRLPRPRPRPHGLPRP", "shrunken log2 fold change": 0.268}
{"sequence": "RRIRWRPPRLPRPRPRPWLAPRP", "shrunken log2 fold change": -0.168}
